Data as given in paper doi:10.1101/127514.

Columns and labels:
[1] = molecular target: human C5a receptor with C-terminal mGFP, on HEK cells (human) (UniProt P21730); assay: single-molecule step-wise photobleaching
[2] = molecular target: Alexa Fluor 647 maleimide-labeled LukS-K281C-Y113H (Staphylococcus aureus); assay: single-molecule step-wise photobleaching

Sequence of UniProt P21730 (P21730 whole entry): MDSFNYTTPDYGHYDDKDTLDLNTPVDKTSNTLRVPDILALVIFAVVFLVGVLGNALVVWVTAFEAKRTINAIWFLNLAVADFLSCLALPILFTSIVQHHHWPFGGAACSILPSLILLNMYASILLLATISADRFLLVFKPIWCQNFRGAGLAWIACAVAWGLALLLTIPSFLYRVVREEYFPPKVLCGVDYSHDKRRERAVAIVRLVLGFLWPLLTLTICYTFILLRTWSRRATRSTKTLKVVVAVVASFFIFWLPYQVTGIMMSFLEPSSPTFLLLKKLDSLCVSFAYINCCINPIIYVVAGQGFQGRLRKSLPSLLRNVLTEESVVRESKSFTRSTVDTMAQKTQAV

“Alexa Fluor 647 maleimide-labeled LukS-K281C-Y113H (natural protein)” was tested, and the stoichiometry N (hC5aR molecules per LukS molecule) [1] was 4 to 5 and the stoichiometry N [2] was 3.9 molecules.
